Measured values reported in patent US11278600B2, “Human alpha-galactosidase variants” (Codexis, Inc., priority 2014, dated 2022).
Changes are numbered by the printed parent chain.

B1: 26 (protein)
chain: LDNGLARTPTMGWLHWERFMCNLDCQEEPDSCISEKLFMEMAELMVSEGWKDAGYEYLCIDDCWMAPQRDSEGRLQADPQRFPHGIRQLANYVHSKGLKLGIYADVGNKTCAGFPGSFGYYDIDAQTFADWGVDLLKFDGCYCDSLENLADGYKHMSLALNRTGRSIVYSCEWPLYMWSFQKPNYTEIRQYCNHWRNFADIDDSWKSIKSILDWTSFNQERIVDVAGPGGWNDPDMLVIGNFGLSWNQQVTQMALWAIMAAPLFMSNDLRHISPQAKALLQDKDVIAINQDPLGKQGYQLRQGDNFEVWERPLSGLAWAVAMINRQEIGGPRSYTIAVASLGKGVACNPACFITQLLPVKRKLGFYEWTSRLKSHINPTGTVLLQLENTMQMSLKDLLL
modifications: Synthetic Polypeptide sequence of Variant No. 26 of mature Human GLA
B2: 28 (protein)
chain: B1 chain with S179P, Q299R, Q302K
modifications: Synthetic Polypeptide sequence of Variant No. 28 of mature Human GLA
B3: 29 (protein)
chain: B1 chain with S179P, Q299R, Q302K, I376V
modifications: Synthetic Polypeptide sequence of Variant No. 29 of mature Human GLA
B4: 30 (protein)
chain: B1 chain with S179P, Q302K, K373R, I376V
modifications: Synthetic Polypeptide sequence of Variant No. 30 of mature Human GLA
B5: 31 (protein)
chain: B1 chain with S179P
modifications: Synthetic Polypeptide sequence of Variant No. 31 of mature Human GLA
B6: 27 (protein)
chain: B1 chain with S179P, Q299R, M322V
modifications: Synthetic Polypeptide sequence of Variant No. 27 of mature Human GLA

assay: HTP-analysis of yeast culture supernatants, no challenge (MUGal hydrolysis); format: biochemical; details: activity of the variant/activity of WT GLA (SEQ ID NO: 5), yeast supernatant
Protocol: (§1) Yeast (INVSc1) cells transformed with vectors expressing GLA and GLA variants using the lithium acetate method were selected on SD-Ura agar plates. After 72 h incubation at 30° C. colonies were placed into the wells of Axygen® 1.1 ml 96-well deep well plates filled with 200 μl/well SD-Ura broth (2 g/L SD-Ura, 6.8 g/L yeast nitrogen base without amino acids [Sigma Aldrich]), 3.06 g/L sodium dihydrogen phosphate, 0.804 g/L disodium hydrogen phosphate, pH 6.0 supplemented with 6% glucose. The cells were allowed to grow for 20-24 hours in a Kuhner shaker (250 rpm, 30° C., and 85% relative humidity). Overnight culture samples (20 μL) were transferred into Corning Costar® 96-well deep plates filled with 380 µL of SD-ura broth supplemented with 2% glucose. The plates were incubated for 66-84 h in a Kuhner shaker (250 rpm, 30° C., and 85% relative humidity). The cells were then pelleted (4000 rpm×20 min), and the supernatants isolated and stored at 4° C. prior to analysis.
GLA variant activity was determined by measuring the hydrolysis of 4-methylumbelliferyl α-D-galactopyranoside (MUGal). For this assay, 5-50 μL, of yeast culture supernatant produced as described above, was mixed with 0-45 μL, of McIlvaine Buffer (McIlvaine, J. Biol. Chem., 49:183-186 [1921]), pH 4.8 and 50 μL of 2 mM MUGal in 50 mM citrate, 200 mM KCl, pH 4.6 in a 96-well, black, opaque bottom plate. The reactions were mixed briefly and incubated at 37° C. for 30-180 minutes, prior to quenching with 100 μL, of 1 M sodium carbonate. Hydrolysis was analyzed using a SpectraMax® M2 microplate reader monitoring fluorescence (Ex. 355 nm, Em. 448 nm).

Row | Molecule | Relative Activity of GLA Variants After No Challenge (NC)
1 | B1 | + (+ = 0.5 to 1.5 relative activity over WT GLA (SEQ ID NO: 5))
2 | B2 | + (+ = 0.5 to 1.5 relative activity over WT GLA (SEQ ID NO: 5))
3 | B3 | + (+ = 0.5 to 1.5 relative activity over WT GLA (SEQ ID NO: 5))
4 | B4 | + (+ = 0.5 to 1.5 relative activity over WT GLA (SEQ ID NO: 5))
5 | B5 | + (+ = 0.5 to 1.5 relative activity over WT GLA (SEQ ID NO: 5))
6 | B6 | + (+ = 0.5 to 1.5 relative activity over WT GLA (SEQ ID NO: 5))

assay: HTP-analysis of supernatants pretreated with acid (MUGal hydrolysis); format: biochemical; details: challenge at pH 4.3; activity of the variant/activity of WT GLA (SEQ ID NO: 5); yeast supernatant
Protocol: as §1
GLA variants were challenged with acidic buffer to simulate the extreme pHs that the variants may encounter in lysosomes. First, 50 μL of yeast culture supernatant and 50 uL of McIlvaine buffer (pH 3.3-4.3) were added to the wells of a 96-well round bottom plate. The plates were sealed with a PlateLoc Thermal Microplate Sealer (Agilent) and incubated at 37° C. for 1-3 h. For the assay, 10-50 uL of acid-pH-challenged sample was mixed with 0-40 μL, of McIlvaine buffer pH 4.8, 25 μL, of 1 M citrate buffer pH 4.3 and 25 μL, of 4 mM MUGal in McIlvaine buffer pH 4.8. The reactions were mixed briefly and incubated at 37° C. for 30-180 minutes, prior to quenching with 100 μL, of 1 M sodium carbonate. Hydrolysis was analyzed using a SpectraMax® M2 microplate reader monitoring fluorescence (Ex. 355 nm, Em. 448 nm).

Row | Molecule | Relative Activity of GLA Variants After Challenge at pH 4.3
7 | B1 | + (+ = 0.5 to 1.5 relative activity over WT GLA (SEQ ID NO: 5))
8 | B2 | + (+ = 0.5 to 1.5 relative activity over WT GLA (SEQ ID NO: 5))
9 | B3 | + (+ = 0.5 to 1.5 relative activity over WT GLA (SEQ ID NO: 5))
10 | B4 | ++ (++ = >1.5 to 2.5 relative activity over WT GLA (SEQ ID NO: 5))
11 | B5 | + (+ = 0.5 to 1.5 relative activity over WT GLA (SEQ ID NO: 5))
12 | B6 | + (+ = 0.5 to 1.5 relative activity over WT GLA (SEQ ID NO: 5))

assay: HTP-analysis of supernatants pretreated with base (MUGal hydrolysis); format: biochemical; details: challenge at pH 7.0; activity of the variant/activity of WT GLA (SEQ ID NO: 5); yeast supernatant
Protocol: as §1
GLA variants were challenged with basic (neutral) buffer to simulate the pHs that the variants encounter in the blood following their administration to a patient. First, 50 μL of yeast culture supernatant and 50 uL of McIlvaine buffer (pH 7.0-8.2) or 200 mM sodium bicarbonate (pH 9.1-9.7) were added to the wells of a 96-well round bottom plate. The plates were sealed and incubated at 37° C. for 1-18 h. For the assay, 10-50 μL of basic-pH-challenged sample was mixed with 0-40 μL, of McIlvaine buffer pH 4.8, 25 μL, of 1 M citrate buffer pH 4.3 and 25 μL, of 4 mM MUGal in McIlvaine buffer pH 4.8. The reactions were mixed briefly and incubated at 37° C. for 30-180 minutes, prior to quenching with 100 μL, of 1 M sodium carbonate. Hydrolysis was analyzed using a SpectraMax® M2 microplate reader monitoring fluorescence (Ex. 355 nm, Em. 448 nm).

Row | Molecule | Relative Activity of GLA Variants After Challenge at pH 7.0
13 | B1 | + (+ = 0.5 to 1.5 relative activity over WT GLA (SEQ ID NO: 5))
14 | B2 | + (+ = 0.5 to 1.5 relative activity over WT GLA (SEQ ID NO: 5))
15 | B3 | + (+ = 0.5 to 1.5 relative activity over WT GLA (SEQ ID NO: 5))
16 | B4 | + (+ = 0.5 to 1.5 relative activity over WT GLA (SEQ ID NO: 5))
17 | B5 | + (+ = 0.5 to 1.5 relative activity over WT GLA (SEQ ID NO: 5))
18 | B6 | + (+ = 0.5 to 1.5 relative activity over WT GLA (SEQ ID NO: 5))
